Target: T1, Wild type RepD from Staphylococcus aureus, as oriD DNA-RepD adduct
T1 chain: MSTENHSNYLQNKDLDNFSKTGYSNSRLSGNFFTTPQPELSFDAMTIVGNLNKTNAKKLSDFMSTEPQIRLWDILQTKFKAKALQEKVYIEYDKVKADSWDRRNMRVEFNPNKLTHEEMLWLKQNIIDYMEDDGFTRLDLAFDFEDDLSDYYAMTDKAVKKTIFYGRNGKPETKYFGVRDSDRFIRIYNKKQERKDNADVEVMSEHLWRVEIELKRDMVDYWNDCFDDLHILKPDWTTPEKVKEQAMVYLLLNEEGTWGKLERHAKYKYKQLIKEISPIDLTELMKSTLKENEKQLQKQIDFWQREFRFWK

B1: PcrA-DM1, a double cysteine mutant of PcrA, stochastically labeled with a mixture of donor and acceptor fluorophores (protein)
chain: MNFLSEQLLAHLNKEQQEAVRTTEGPLLIMAGAGSGKTRVLTHRIAYLMAEKHVAPWNILAITFTNKAAREMRERVQSLLGGAAEDVWISTFHSMAVRILRRDIDRIGINRNFSILDPTDQLSVMKTILKEKNIDPKKFEPRTILGTISAAKNELLPPEQFAKRASTYYEKVVSDVYQEYQQRLLRCHSLDFDDLIMTTIQLFDRVPDVLHYYQYKFQYIHIDEYQDTNRAQYTLVKKLAERFQNIAAVGDADQSIYRWRGADIQNILSFERDYPNAKVILLEQNYRSTKRILQAANEVIEHNVNRKPKRIWTENPEGKPILYYEAMNEADEAQFVAGRIREAVERGERRYRDFAVLYRTNAQSRVMEEMLLKANIPYQIVGGLKFYDRKEIKDILAYLRVIANPDDDCSLLRIINVPKRGIGASTIDKLVRYAADHELSLFEALGELEMIGLGAKAAGALAAFRSQLEQWTQLQEYVSVTELVEEVLDKSGYREMLKAERTIEAQSRLENLDEFLSVTKHFENVSDDKSLIAFLTDLALISDLDELDGTEQAAEGDAVMLMTLHAAKGLEFPVVFLIGMEEGIFPHNRSLEDDDEMEEERRLAYVGITRAEEELVLTSAQMRTLFGNIQMDPPSRFLNEIPAHLLETASRRQAGASRPAVSRPQASGAVGSWKVGDRANHRKWGIGTVVSVRGGGDDQELDIAFPSPIGIKRLLAKFAPIEKV
In the case of B1, the “EFRET distribution of dual labeled PcrA-DM1 (smFRET, intramolecular conformation of PcrA)” value is reported as “the presence of RepD indeed biases PcrA toward the closed high EFRET conformation”.

Source: patent US20250075192
